Source: patent US10738294B2, “Tissue factor (TF)—targeted nanotherapy” (Northwestern University, priority 2016, dated 2020)
No end group written: not given here. *: point of attachment. Dodecyl = CCCCCCCCCCCC*

B1: recombinant TF: rat recombinant tissue factor (Cloud Clone Corp) coated on wells as positive control (protein)
chain: AGTPPGKAFNLTWISTDFKTILEWQPKPTNYTYTVQISDRSRNWKYKCTGTTDTECDLTDEIVKDVNWTYEARVLSVPWRNSTHGKETLFGTHGEEPPFTNARKFLPYRDTKIGQPVIQKYEQGGTKLKVTVKDSFTLVRKNGTFLTLRQVFGNDLGYILTYRKDSSTGRKTNTTHTNEFLIDVEKGVSYCFFAQAVIFSRKTNHKSPESITKCTEQWKSVLGE

Key:
[1] = target: T1, Rat recombinant TF (Rattus norvegicus, UniProt P42533); assay: Plate-based in vitro binding assay of TF-targeting peptides to recombinant TF; details: for absorbance (binding to recombinant TF): 450 nm, coated peptides incubated with 75 ng recombinant TF; for dose response of absorbance with recombinant TF: peptide-coated plates, increasing concentrations of recombinant TF
T1 construct: purchased Cloud Clone Corp
T1 sequence (P42533 29-295): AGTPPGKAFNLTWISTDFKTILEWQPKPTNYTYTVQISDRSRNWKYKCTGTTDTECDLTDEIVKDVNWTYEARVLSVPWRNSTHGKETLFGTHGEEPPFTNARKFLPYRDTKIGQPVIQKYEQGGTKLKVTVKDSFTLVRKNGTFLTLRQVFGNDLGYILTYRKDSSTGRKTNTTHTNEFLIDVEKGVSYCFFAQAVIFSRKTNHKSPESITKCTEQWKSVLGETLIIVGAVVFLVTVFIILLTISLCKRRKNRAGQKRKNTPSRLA
Procedure: A plate-based binding assay for the TF-targeting peptides was performed as follows. Peptides were dissolved in water at a concentration of 60 μM and coated onto BD Falcon OptiLux 96-well plates (BD Biosciences, Franklin Lakes, N.J.) by incubating them at 37° C. for 2 hours, then at 4° C. overnight. Next, wells were blocked using Superblock phosphate buffered saline (PBS) blocking buffer (200 μL per well, Thermo Scientific, Waltham, Mass.) for 2 hours at room temperature, then washed two times with water. Rat recombinant TF (Cloud Clone Corp, Houston, Tex.) was added in amounts of 12.5-75.0 ng, dissolved in PBS for a total volume of 50 μL/well and incubated at room temperature for 4 hours. Plates were rinsed with water twice, then blocked with Superblock PBS blocking buffer for 30 minutes at room temperature. Colorimetric immunodetection was then performed by incubating wells with anti-TF antibody (Cat. #: ab104513, rabbit polyclonal, Abcam, Cambridge, Mass.) dissolved in Superblock PBS blocking buffer (1:5000) at 4° C. overnight. Wells were washed in water 4 times, and then incubated with a secondary goat-anti-rabbit antibody (Thermo scientific, Rockford, Ill.) conjugated to horseradish peroxidase and dissolved 1:5000 in Superblock PBS blocking buffer for 2 hours at room temperature. Wells were then rinsed 4 times in water, developed using TMB developing solution (TMB Substrate, Thermo Scientific, Waltham, Mass.) for 15 minutes, then stopped with 0.18 M H2SO4 (Sigma Aldrich, St. Louis, Mo.). Plates were immediately read using an Epoch plate reader (BioTek, Winooski, Vt.) at 450 nm. Wells were coated in triplicate, and the assay was performed three times. Treatment groups were each peptide as stated above. Negative controls were wells coated with blocking buffer rather than peptide, and positive controls were wells coated with rat recombinant TF (Cloud Clone Corp) at 12.5 and 25 ng/well.

[2] = test system: Sprague Dawley rats; assay: Liver punch hemorrhage model, blood loss; format: in vivo; details: % total blood volume, rat liver punch model, 30 minutes, 2.5 mg PA by tail vein
Procedure: (§1) At the end of 30 minutes, animals were euthanized.
Blood loss was presented as % total blood volume. […] Data were log transformed for analysis.

[3] = test system: injured liver; assay: Fluorescent microscopy of nanofiber binding in liver and other organs after liver punch injury; format: in vivo; details: rat liver punch model, tail vein injection, fluorescently labeled nanofiber
Procedure: as §1
In situ perfusion with 400 mL of a PBS solution was performed, and organs including the kidneys, spleen, lung, uninjured liver, and injured lobe of the liver were collected for tissue processing. Samples were fixed in 2% paraformaldehyde for 2 hours, then 30% sucrose overnight. Samples were then frozen in Tissue-Tek OTC compound (Sakura Finetek, Torrance, Calif.) over liquid nitrogen and stored at −20° C. A LEICA CM 1950 cryostat (LEICA Biosystems, Buffalo Grove, Ill.) was used to cut samples into 10-μm sections, which were stained with 4′,6-diamidino-2-phenylindole (DAPI, Invitrogen, Grand Island, N.Y.), and fixed with ProLong® Gold antifade reagent (Life Technologies, Eugene, Oreg.). […]
Digital images were acquired using a Zeiss LSM-510 microscope (Hallbergmoos, Germany) with a 20× objective. The HE CY3 filter (Zeiss filter #43) using excitation and emission wavelength 550-575 nm and 605-670 nm, respectively, was used to assess PA fluorescence. […] The green fluorescent protein filter (Zeiss filter #38) using excitation and emission wavelengths of 470-495 nm and 525-550 nm, respectively, was used to assess tissue auto-fluorescence.

Molecule | absorbance (binding to recombinant TF) [1] | total blood loss [2] | fluorescence in injured liver [3] | dose response of absorbance with recombinant TF [1]
A2V2K2—C12 (KKAAVVK) [non-specific peptide, non-specific peptide, consisting of the filler peptide, selected as a non-targeted control] | 0.2±0.03 |  |  | 
EGRNCETHKDDQL | 0.19±0.3 |  |  | 
KKAAVV(K)-C12 (KKAAVVK(Dodecyl)-NH2; not fully specified; printed as KKAAVV(K)-C12) [non-specific PA nanofiber] |  | 21±2% | No fluorescence was observed | 
RLMTQDCLQQRSK | 0.29±0.02 |  |  | increased absorbance with increasing concentrations of recombinant TF
RTLAFVRFK | 0.28±0.03 |  |  | increased absorbance with increasing concentrations of recombinant TF
B1 | 0.32±0.01 |  |  | 
